Source: patent US20170334973A1 (INTEGRATED BIOTHERAPEUTICS, published 2017)

T1: SUDV VLP (Sudan virus (SUDV), UniProt Q66814 33-676)
T1 sequence: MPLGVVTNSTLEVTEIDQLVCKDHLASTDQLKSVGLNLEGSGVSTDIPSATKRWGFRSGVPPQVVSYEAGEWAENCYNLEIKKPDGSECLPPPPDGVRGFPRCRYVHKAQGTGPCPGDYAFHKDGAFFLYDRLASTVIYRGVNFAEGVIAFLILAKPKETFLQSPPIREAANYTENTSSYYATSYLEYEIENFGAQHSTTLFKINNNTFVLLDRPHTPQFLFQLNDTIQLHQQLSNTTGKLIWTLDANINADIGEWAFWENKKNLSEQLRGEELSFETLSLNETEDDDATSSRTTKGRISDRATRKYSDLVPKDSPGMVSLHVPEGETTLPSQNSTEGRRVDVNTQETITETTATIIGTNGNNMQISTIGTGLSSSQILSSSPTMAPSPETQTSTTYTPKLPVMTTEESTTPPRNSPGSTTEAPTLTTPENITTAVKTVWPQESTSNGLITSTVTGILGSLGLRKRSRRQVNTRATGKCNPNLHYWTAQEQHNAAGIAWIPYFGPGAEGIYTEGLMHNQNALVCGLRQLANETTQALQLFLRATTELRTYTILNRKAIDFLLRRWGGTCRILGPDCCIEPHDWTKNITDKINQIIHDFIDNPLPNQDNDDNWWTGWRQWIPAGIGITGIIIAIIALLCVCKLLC

T2: EBOV VLP (Ebola virus (EBOV), UniProt Q05320 33-676)
T2 sequence: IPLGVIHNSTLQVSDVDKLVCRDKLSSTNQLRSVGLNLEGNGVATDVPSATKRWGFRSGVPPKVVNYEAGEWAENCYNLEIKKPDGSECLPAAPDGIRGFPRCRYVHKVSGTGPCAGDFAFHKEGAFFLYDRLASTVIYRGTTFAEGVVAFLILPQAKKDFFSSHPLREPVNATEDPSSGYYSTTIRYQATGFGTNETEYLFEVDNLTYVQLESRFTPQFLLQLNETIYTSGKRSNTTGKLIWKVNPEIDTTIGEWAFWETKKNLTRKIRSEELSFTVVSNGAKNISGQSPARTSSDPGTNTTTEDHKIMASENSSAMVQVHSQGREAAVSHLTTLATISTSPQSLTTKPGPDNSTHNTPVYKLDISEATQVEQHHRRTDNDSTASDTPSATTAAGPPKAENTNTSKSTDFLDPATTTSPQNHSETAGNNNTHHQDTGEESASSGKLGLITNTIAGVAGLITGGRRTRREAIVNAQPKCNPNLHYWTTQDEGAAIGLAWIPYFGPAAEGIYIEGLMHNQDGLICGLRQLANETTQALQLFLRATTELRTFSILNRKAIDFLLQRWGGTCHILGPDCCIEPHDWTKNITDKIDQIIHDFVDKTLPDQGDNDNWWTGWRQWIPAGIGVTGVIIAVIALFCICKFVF


Legend:
SUDV VLP = target: T1, SUDV VLP; assay: ELISA
EBOV VLP = target: T2, EBOV VLP; assay: ELISA

| Binder | EC50 (SUDV VLP) | EC50 (EBOV VLP) |
| --- | --- | --- |
| FVM29 (antibody, V domains shown) VH: EVQLVQSGAEVKRPGESLKISCQTSGNSFTNNWISWVRQMPGKGLEWMGAIDPSDSETRYSPSFQGQVTISADKSINTAYLQWSSLKASDTATYYCVKGSETWGQGVLVTVSS VL: QPVLTQPASLSASPGASASLTCTFSGGINVAGYNILWYQQKAGSPPRYLLRYKSDSTKDQGSGVPSRFSGSKDASANTGILRISGLQSEDEADYYCAIGHSSGWIFGGGTRLTVL | 24.1 nM | – |
| FVM08 (antibody, V domains shown) VH: EVQLVQSGAEVKRPGESLTISCKTSGYSFTDSWVAWVRQMPGKGLEWMGSIYPGDSDTRYNPSFEGQVTISADKSISTTYLQWSSLRASDTATYYCVKGADDWGQGVLVTVSS VL: QPVLTQPASLSASPGASASLTCTFSGGINVAGYNILWYQQKAGSPPRYLLRYKSDSTKDQGSGVPSRFSGSKDASANTGILRISGLQSEDEADYYCAIGHSSGWIFGGGTRLTVL | 0.135 nM | 0.193 nM |
| FVM39 (antibody, V domains shown) VH: EVQLVQSGAEVKRPGESLRISCKTSGYSFTDSWISWVRQMPGKGLEWLGSIYPGDSETKYNPSFQGHVTISADKSVTTTYLKWSSLKASDTATYYCVKGSETWGQGVLVTVSS VL: QPVLTQPASLSASPGASASLTCTFSGGINVAGYNILWYQQKAGSPPRYLLRYKSDSTKDQGSGVPSRFSGSKDASANTGILRISGLQSEDEADYYCAIGHSSGWIFGGGTRLTVL | 0.047 nM | 0.08 nM |
| FVM07 (antibody, V domains shown) VH: EVQLVQSGAEVKRPGESLTISCKTSGYSFTDSWIGWVRQMPGKGLEWMGSIYPGDSDTKYNPSFQGHVTISADKSISTTYLQWSSLKASDTATYYCVAREAYWGQGVLVTVSS VL: QPVLTQPASLSASPGASASLTCTFSGGINVAGYHIFWYQQKPGSPPRYLLRYKSDSDKGQGSGVPSRFSGSKDASANTGILRISGLQSEDEADYYCAIGHSSGVLFGGGTRLTVL | 18.2 nM | 1.71 nM |
| FVM22 (antibody, V domains shown) VH: EVQLVQSGAEVKRPGESLTISCKTSGYSFTDSWVAWVRQMPGKGLEWLGSIYPGDSETKYNPSFQGHVTISADKSISTAYLQWSSLKASDTATYYCAKGSETWGQGVLVTVSS VL: SSGLTQPASLSASPGASASLTCTFSGGINVAGYNILWYQQKAGSPPRYLLRYKSDSTKDQGSGVPSRFSGSKDASANTGILRISGLQSEDEADYYCAIGHSSGWIFGGGTRLTVL | 0.173 nM | 0.253 nM |
| FVM33 (antibody, V domains shown) VH: QVQLVQSGAEVKRPGESLKISCKTSRYSFTSSWIGWVRQMPGKGLEWLGSIYPGDSDTRYNPSFQGHVTISADKSVTTTYLKWSSLKASDTATYYCVKGSETWGQGVLVTVSS VL: QPVLTQPASLSASPGASASLTCTFSGGINVAGYNILWYQQKAGSPPRYLLRYKSDSTKDQGSGVPSRFSGSKDASANTGILRISGLQSEDEADYYCAIGHSSGWIFGGGTRLTVL | 0.08 nM | 0.173 nM |
| FVM16 (antibody, V domains shown) VH: EVQLVQSGAEVKRPGESLKISCRTSGYSFTSTWINWVRQMPGKGLEWLGSIYPGDSETKYNPSFQGHVTISADKSVTTTYLKWSSLKASDTATYYCVKGSETWGQGVLVTVSS VL: KPMLTQPASLSASPGASASLTCTFSGGINVAGYNILWYQQKAGSPPRYLLRYKSDSTKDQGSGVPSRFSGSKDASANTGILRISGLQSEDEADYYCAIGHSSGWVFGGGTRLTVL | 1.43 nM | 0.655 nM |
| FVM11 (antibody, V domains shown) VH: EVQLVQSGAEVKRPGESLTISCKTSGYSFTDSWVAWVRQMPGKGLEWLGSIYPGDSETKYNPSFQGHVTISADKSVTTTYLKWSSLKASDTATYYCVKGSETWGQGVLVTVSS VL: NFMLTQPASLSASPGASASLTCTFSGGINVAGYNILWYQQKAGSPPRYLLRYKSDSTKDQGSGVPSRFSGSKDASANTGILRISGLQSEDEADYYCAIGHSSGWIFGGGTRLTVL | 0.189 nM | 0.219 nM |
| FVM26 (antibody, V domains shown) VH: QVQLVQSGAEVKRPGESLRISCKTSGYTFTDYWIAWVRQMPGKGLEWMGSIYPGDSETKYNPSFQGHVTISADKSVTTTYLKWSRLKASDTATYYCVKGSETWGQGVLVTVSS VL: QPVLTQPASLSASPGASASLTCTFSGGINVAGYNILWYQQKAGSPPRYLLRYKSDSTKDQGSGVPSRFSGSKDASANTGILRISGLQSEDEADYYCAIGHSSGWIFGGGTRLTVL | 0.153 nM | 0.26 nM |
| FVM15 (antibody, V domains shown) VH: QVQLVQSGAEVKRPGESLRISCKTSGYTFTDYWIAWVRQMPGKGLEWMGSIYPGDSETKYNPSFQGHVTISADKSVTTTYLKWSRLKASDTATYYCVKGSETWGQGVLVTVSS VL: QPVLTQPASLSASPGASASLTCTFSGGINVAGYNILWYQQKAGSPPRYLLRYKSDSTKDQGSGVPSRFSGSKDASANTGILRISGLQSEDEADYYCAIGHSSGWIFGGGTRLTVL | 0.129 nM | 0.151 nM |
| FVM31 (antibody, V domains shown) VH: QVQLVQSGAEVKRPGESLTISCKTSGYSFTDSWVAWVRQMPGKGLEWLGSIYPGDSDARYNPSFQGHVTISADTSVTTTYLKWSSLKASDTATYYCVKGSETWGQGVLVTVSS VL: KPMLTQPASLSASPGASASLTCTFSGGINVAGYNILWYQQKAGSPPRYLLRYKSDSTKDQGSGVPSRFSGSKDASANTGILRISGLQSEDEADYYCAIGHSSGWIFGGGTRLTVL | 0.193 nM | 0.32 nM |
| FVM06 (antibody, V domains shown) VH: EVQLVQSGAEVKRPGESLTISCKTSGYSFTNYWISWVRQMPGEGLEWMGAIDPSDSDTRYSPSFQGQVTMSADKSITTAYLQWSSLKASDTATYYCVKGSETWGQGVLVTVSS VL: QPVLTQPASLSASPGASASLTCTFSGGINVAGYNILWYQQKAGSPPRYLLRYKSDSTKDQGSGVPSRFSGSKDASANTGILRISGLQSEDEADYYCAIGHSSGWIFGGGTRLTVL | 0.213 nM | 0.215 nM |
| FVM14 (antibody, V domains shown) VH: EVQLVQSGAEVKRPGESLKISCQTSGYSFTSTWITWVRQMPGKGLEWLGSIYPGDSETKYNPSFQGHVTISADKSISTTYLQWNSLKASDTATYYCVKGSETWGQGVLVTVSS VL: QAVVTQPASLSASPGASASLTCTFSGGINVAGYNILWYQQKAGSPPRYLLRYKSDSTKDQGSGVPSRFSGSKDASANTGILRISGLQSEDEADYYCAIGHSSGWIFGGGTRLTVL | 0.157 nM | 0.78 nM |
| FVM34 (antibody, V domains shown) VH: EVQLVESGAEVKRPGESLTISCKTSGYSFTDSWVSWVRQMPGKGLEWMGSIYPGDSETKYNPSFQGHVTISADKSVTTTYLKWSSLKASDTATYYCVKGSETWGQGVLVTVSS VL: QPVLTQPASLSASPGASASLTCTFSGGINVAGYYIHWYQQKPGSPPRYLLRYKSDSDKHQGSGVPSRFSGSKDASANTGILRISGLQSEDEADYYCAIGHSSGWVFGGGTRLTVL | 0.227 nM | 0.193 nM |
| FVM27 (antibody, V domains shown) VH: EVQLVQSGAEVKRPGESLKISCKTSGYSFASSWISWVRQMPGKGLEWMGAIDPSDSATRYSPSFQGQVTISADKSISTAYLQWSSLKASDTATYYCVKGSETWGQGVLVTVSS VL: QPVLTQPASLSASPGASASLTCTFSGGINVAGYNILWYQQKAGSPPRYLLRYKSDSTKDQGSGVPSRFSGSKDASANTGILRISGLQSEDEADYYCAIGHSSGWIFGGGTRLIVL | 0.12 nM | 0.233 nM |
| FVM05 (antibody, V domains shown) VH: QVQLQESGPGLVKPSETLSLTCAVSGFSISSGYGWSWIRQPPGKGLEWIGYIGGSSGSTSYNPSLKSRVTLSADTSKNQFSLKLSSVTAADTAVYYCARRYSSYRSWFDVWGPGVLVTVSS VL: SSGLTQPRSVSVSPGQTARITCGGDNIGSKSVHWYQQKPPQAPVLVIYADSERPSGIPERFSGSNSGNTATLTISGVEAGDEADYYCQVWDSSSDHWVFGGGTRLTVL | – | 18 nM |
| FVM04 (antibody, V domains shown) VH: EVQLVQSGGGLVQPGGSMRLSCEASGLSLSDYFMHWVRQAQGKGLEWIGLIQTKAFTYKTEYPAAVKGRFTISRDDSKNTLYLQMSSLKPEDTALYYCIAVTPDFYYWGQGVLVTVSS VL: DVVMTQSPSFLSASVGDRVTITCRASQDITINLNWFQHKPGKAPKRLIYVASRLERGVPSRFSGSGSGTEFTLTISSLQPEDFATYYCQQYNNYPLTFGPGTKLDIKR | 0.193 nM | 0.306 nM |
